Measurements from the DeepSol protein solubility set.

experiment: soluble on expression in E. coli; label from the status in PepcDB or PDB records

| Sequence | soluble on expression in E. coli |
| --- | --- |
| MMAESTGVDRGIQSLIAARKSLKLSLEKSKAIGLALGKTGPRFDEIEQRLPLLEAAVRPIRADGEALKDVGGNINRAVGPAAAVLKVFDAVHGLEKSLLSDPKNDLSSYLSVLKRLEEALKFLGENCGLAIQWLEDIVEYLDDHHVADEKYLSNLKKSLRGLSEFHNDRGGGEEKERSQLRLDGGLRNAALDKLENEFRRLLKDNSVPLPMASPSSLGDQACIAPSQLPVTVIHKLQAILGRLRANNRLDKCISIYVEVRSLNVRASLQALDLDYLDISVSEFNDVQSIEGYIAQWGNHLEFAVKHLFEAEFKLCNDVFERLGLNVWMDCFSKIAAQAGMLAFLQFGKTVTDSKKDPIKLLKLLDIFTSLNKLRADFNRLFGGAACIEIQNFTRDLIKRIIDGAAEIFWELLVQVEIQKQTPPPSDGGVPRLVSFVTDYCNKLIGDKYKSTLTQVLLIHKSWRSERFQDNQLMVEVLRIIKAIEQNLDVWMKAYPDQTLAHFFGMNNHWHLYKNLKGTNIGDHLGDSWLKEHDQYKEYYATVFLRDSWGKLPSHLSREGLILFSGGHATARDLVKKRLKAFNDAFDEMYKKQASWVLPEKDLRDRVCQQIVQAIVPVYRSYMQNYGPLVEKDASSSKYVRYTVVALEKILSSLYMPKPMRYGSFKGTPPSEKFKNDVDLRRTTSAVV | soluble |
| MGSDKIHHHHHHMVNSSGLLAKLYNAFNPFEPLPAGDPKYVDCQDVRGDADIEQELGNRMRLADTNTCQLYSGHRGAGKSTELLRLKKYLENREFYVVYFAADEEDIDSEDAQYTDILLACTRRLLKDLKGIASPRPILDWLKGRWEDLKDLAQTPIEFESLGVEAQLTQFAKLTANLRAVPELRQKIRQKIDPYTVTLIQVLNEFLVDAKQHLPNGYKKLAVIVDNLDRMVLVKDAERTNYEEVFLDRSEQLQALDCHLIYTVPISMVYSTRATDLRDIYGDPQILPMIMVKTFEGNVYQPGLEKVKEVIKKRVRQIAPELSLETEIFDSPQTLDRLCLMSGGHVRNLLLLTQDAIGRSEDLPVSEKAVRRAITQARDTYRRAVENHQWCLLAEVSCSKRIINDDLYRSLMYNRCLLEYRYLDDDGEMQRWYDIHPLIQGIPEFKEAVAKLS | not soluble |
| PADFNGTWEMLSNDNFEDVMKALDIDFATRKIAVHLKQTKVIVQNGDKFETKTLSTFRNYEVNFVIGEEFDEQTKGLDNRTVKTLVKWDGDKLVCVQKGEKENRGWKQWIEGDLLHLEIHCQDKVCHQVFKKKN | soluble |
| KRELTVLDLHPGAGKTRRVLPQLVREAVKKRLRTVILAPTRVVASEMYEALRGEPIRYMTPAVQSERTGNEIVDFMCHSTFTMKLLQGVRVPNYNLYIMDEAHFLDPASVAARGYIETRVSMGDAGAIFMTATPPGTTEAFPPSNSPIIDEETRIPDKAWNSGYEWITEFDGRTVWFVHSIKQGAEIGTCLQKAGKKVLYLNRKTFESEYPKCKSEKWDFVITTDISEMGANFKADRVIDPRKTIKPILLDGRVSMQGPIAITPASAAQRRGRIGRNPEKLGDIYAYSGNVSSDNEGHVSWTEARMLLDNVHVQGGVVAQLYTPEREKTEAYEGEFKLKTNQRKVFSELIRTGDLPVWLAFQVASANVEYHDRKWCFDGPNEHLLLENNQEIEVWTRQGQRRVLKPRWLDGRITSDHLNLKSFKEFASGKR | soluble |
| MGSDKIHHHHHHMMILIQSRGKMKCKELSEELEVSERQIKSYKMYLEQAGIFINSTPGIYGGYEIDKCNSISLIKLLDSEVSILDMINSQLEYNNDIYKNEFNNIVEKIKAVLNTGEKSDTYMDYFTVQAQRNCDYESEKNKCNEIIRAYTTKHKFWIEYYSLNSGNSERIVHPYGLFNYKSDTYMVAFCEKRFKFIDFKLCRIKDYKVLEEKYNVDKSFSWDEYSKNSIGIYKGEEINVVIKISHPFSTIIKEKVWVNNQQIIEYDDKSIMFKAKMRGYEEIKSWILSMGAYVEVVEPDRLRNDILSEIEKMKKIY | not soluble |
| MTDILIDNTATETVRTLIRAFPLVPVSQPPEQGSYLLAEHDTVSLRLVGEKSSVIVDFASGAAQYRRTKGGGELIAKAVNHTAHPTVWDATAGLGRDSFVLASLGLAVTAFEQHPAVACLLSDGIRRALLNPETQNTAAHINLHFGNAAEQMPALVQTQGKPDIVYLDPMYPERRKSAAVKKEMTYFHRLVGEAQDEAALLHTARQTAKKRVVVKRPRLGEHLAGQDPAYQYTGKSTRFDVYLPYGTDKG | not soluble |
| MSLALQEQCLWETLTPQRPDRAPLKGELTADVCIIGAGFTGLSAAVHLLEQGKRVCVVEAHRAGHGGSGRNVGLVNAGMWIPPDEIEAGFGEQVGSQLNRMLGAAPSLVFSLVDKYHIDCQLRREGTLHMAHNARGEADLRSREEQWKRRGAPVELLTGAACEAATGTRKIAAALLDRRAGTLNPMAYVSGLARAATELGGRLFDHSPVTRLERQGQRWSVQTEQGSVLAEQVVIASNAYTEGDWTELRRNFFPGYYYQVASAPLTEEAARQILPGGQGSWDTRQVLSSIRRDAEGRLLLGSLGNGSQKPLWFLKAWADRVQQHYFPYLKPVEWECTWTGCIAFTPDHLMRLFEPAPGLVAVTGYNGRGVTTGTVVGKAFADYLCNGDPQALPIPFAAMQPLAGVGLRSCLYEAGFSLYHAGQCLRIVEGHHHHHH | not soluble |
| MGSDKIHHHHHHMNNIIATGFNTASTDGELDSLERELRRLEAIGVDTVELALSSLDLIAGGRIVKERGDRLRTLLETFSFRYTVHGLVSSNFMDPATRRHQVDAAKALVEICDSIDARVLVQHAGFLRADQIAQRAGADERQCEALLELGEHAKAYGIRIAFENIFTTEPGQYRQTPAEVAATVKAVNHPDVVALIDFSHAYLESNYRGLDFRDQLRAMAPVLGAPGRRLSRRTATTRIVVITDGGMECSTGWTS | not soluble |
| MHIGQFTRQYPAETAFKVQSNPWKNSPEPFLPMSTQQPKSWADVGKVAGPPRNYHHPYEVKPFEAIDEKNDVFSTMGHWNSEQKQSRQQHQQYQQNQYQARQHQYYQNPPPFYQPEQPVHYQSAQQDVFDNIGEWDNSTPIPSQISPLQLDLTLTTPLPTFQPYPSTRSYSLESPTTSVTSNEEKNSWKTIELILNQKSSRSPSITERLSPVDFGPWTSNL | not soluble |
| MSLTQVIPTSLLQRLSLLFGCAGIVLGTAVANASSPASRDLFEIHVRPTLIKHCIQCHGETEQEGGLKLTSLDAMLAGGDSGPAIVPGNADDSLILEALRFESFEMPPAGQLDDPVVNGFASWIKAGAPWPEDLILTPMPIITEDDRDWWCYQPIADPVVPDVDDDSWCRNEIDRFVLDRLKQENLRPADEATASQLTRRLHFALTGLPPTCPPPSNQQNADSSADDWYEAQLNELLSSPAYGEHQARYWMDLVRYADSDGYNADHARPHAHLYRDYVIRSFNEDKPYDRFVCEQLAGDEIDPGNRDALIGTMYLRHWIYEWNQRDVEGQWQEIISDITETTADVFLAQGLKCARCHDHKFDPLLQRDFFALKAFFTPLLPREDFPVADVATREGHHHHHH | not soluble |
| GSHMNNEDFSQWSVDDVITWCISTLEVEETDPLCQRLRENDIVGDLLPELCLQDCQDLCDGDLNKAIKFKILINKMRDSKLEWKD | soluble |
| MGSDKIHHHHHHMTLPMPEKFWDIRIHKVDIHPGVTGLCVGYERGVWRKDQFVRHAMDWLPEFALKESELKGVDSANMVQMVRDAATAIYKSEKFHKRGEFGELFLHMAKRQVFNSIPAVSKIYYKTARNDTVKGFDSVHVVEAEDGLELWLGEVKFYKDLNSAVADVVKELQGHTQTDYLRDEFNLIMNKVDRDWEHYETMKRLMSKNTSLDEVFKRACIPVLLTYESEAICQCSVCDEEYKKLFINEIREAYKLFSSKKLPTDIRIHLFLFPLASKPELIKALDKKLKLWQQL | not soluble |
| MAHHHHHHMDTHALLALAQSAVDAGNVKAACEFYEVALAQSPNNDEVLEAYAEVMIHYAQDIPRAQQMLRHAIDINPNQGYVKYLNLAQLCEAEEALKCYEKAYEIASLMLHGCRKKKMKKTLQETMATMCCAVAELYLTDLCFAENAEQQCEQAVNRALELNSDLVEPHQLQASLRLSQCRPDEALQSLRRAVDATHRLGEEHQPTYESKIELGRLLMQVDPAEAFQFLLEVLQYGDNNPYVWFLLGESARMRRRYADAARLLRRARVMLVVSGGDATALSEVDAAINVLVQEMGGPEEAAQVKDLDHPYPLELLEAEDDEGAEEDGEDDLEEPEREPCDDEDDA | not soluble |
| MSLRISMATFFPQSVTALDSPLYGRSFADDKMRELFSAQSFISRCVETEVALARAQARLGIIPEDAAAGITAAARTFAPEMERLRDDTEIVGYPILPLVEQLSAHAGEAGKYLHWGATTQDIMDTATVLQIRDGLALISRRIESVRKALAALARNHRDTPMAGRTHLQHALPVTFGYKAAVWLSAFDRHAARLEEISPRVLVVEFSGASGTLASLGTRGLDVQRELARELNLGVPSITWHSARDAVAETVQFLALVSGSLGKLAMDISIMMTTELGEVAEPFVRHRGASSTMPQKQNPVSCELILAGARIVRNHATSMLDAMIHDFERATGPWHLEWSAVPEGFAVASGILYQAEFMLGGLQVFPDRMRENLDHSRGLIVAEAVMMALAPHTGRKEAHDIVYLGCRRAVEDKTGLFEVLRTMPEVAKPLGEEALRDLTDPRNYLGSAGAMVDNVLGGREGHHHHHH | soluble |
| MGSDKIHHHHHHMKRLSLLERSRLPTNDLGNARRLFEAANGRLLWLADGAGGKGCWIAFDGIRWSADEGPMRALAFAQKAAVEICDEAHALRECTADELAEVYGRKFSKEMAEERAGQLWTWSIKSGDSAKTTAMQNQFKGLRDGDEGPFVTQVWQRDFDAQPMAYHCSNGTLRFVQDDAGTWSHVFEKGHRPDDRFMQVANVAYDAAAKAKAWIERMEVMHHDPVQRTALQRIYGMTLTALISDQAFYIFQGKGQDGKSVTNDVVCQLHGMYARKADPKTFLEGPTQQSSGPQSDIVRLAGDVRLVVMDEPKKNSTWDGQKIKQATGSEMIARGVHATTELSFTPHWQLIAECNGLPKAPSDDRGFRRRFKLYPWVVQFGVTPGVADEPVHLVKARLIGEGSGVLNWMIKGCVEWLNERVVPEPEAAKRATASFWSASSAMGEWIASHCDLSDPEAREEATPLYKAFRQFCIDRGDDETKIITQTTFGRQLNDAQIYRVPNNSTGKVERVGIRLKRVDELGGGALSTSGRDTFDDDVARFDADNRDPFGAP | not soluble |
| MGENSLWNVYKTVSFWKVMKNFIIIQIARYTPCLSVKNWLYRTFLRMKVGKKTSFALMVMPDIMFPEKITVGENSIIGYNTTLLAHEYLIREYRLGEIVIGNEVMIGANVTILPGVKIGDGATVSAGTLVHRDVPSGAFVGGNPMRIIYTKEQMTAREGLEHHHHHH | not soluble |
| MGSDKIHHHHHHMGYSFVHPTGVTLYNPEKAFNGYTLMSIRELGAGLIDMNGNVVRLWKDLHGFPNKLLPGGYVIGSLGIRDPAYGYQDQTDLVQVDWEGNVVWKFNRLEYIEDPDNKPQWMVRQHHDYQRDGNPVGYYIPGMECRTDGGNTLILCHENLFNTKISEKRLLDDCFIEVDWEGNILWSWRASDHFEEMNFSDAAKNAMYRNPNMLENGGGMGDWLHINSMSYLGPNQWYDAGDERFHPENIIWDGREANISAIIDKKSGVIVWQMGPDFSATKELRRIGQIIGQHHVHMIPKGLPGAGNILIFDNGSWGGYGTPSNVSKDGIKADHADRSRVIELNPVTMEVVWQLTASELGYKPAGIFDYRFYSPLTSSAQRLPNGNTLITEGTGFRVFEVTADHEVVWEFWSPFTNAVAPTVYRTYRYPYSYVPHLAKPQETPIPRLDIKTFRVPGAAAGQLANQIKVAGTTGYGDKQELCVSFGEEL | not soluble |
| SGSNETLPDNFGKGGWKICFKIEPPATLGNGMLKISFHSDYNRKPHPDDIVEETIKDMWKRRKEVNPKMWNALKFRVDSYSTFHAQGASVVKLNLGLTDYASYQGSGSLASPLTFFQSPEEGAPERHLPLSLGNAGIVLTSDNFIILLERSEQVGEGVGRWVLPGGHPEPSHVNIPDSYLTQSYEGTRDMCLTIERELYNSILMEITEEVGLRSSELFTLQLLGMVQRERDKRPVLVGHTRTTLSKSEMEARFCCQRIHTEACRILFCDIRQVETFFQENEQIMPEHRGALQLYFESSVCQQDWKLCKE | soluble |
